The assay deals with polypeptide N-acetylgalactosaminyltransferase 2 (GalNAc-T2), K75-Q571 (UniProt Q10471). Briefly: other fluorescence titration; tryptophan fluorescence quenching, 25 °C, GalNAc-T2 at 1 μM, peptides 1 to 500 μM, 25 mM Tris, 150 mM NaCl, pH 7.5; without UDP/Mn+2; single binding site model.
polypeptide N-acetylgalactosaminyltransferase 2 (GalNAc-T2), K75-Q571, sequence (Q10471 75-571): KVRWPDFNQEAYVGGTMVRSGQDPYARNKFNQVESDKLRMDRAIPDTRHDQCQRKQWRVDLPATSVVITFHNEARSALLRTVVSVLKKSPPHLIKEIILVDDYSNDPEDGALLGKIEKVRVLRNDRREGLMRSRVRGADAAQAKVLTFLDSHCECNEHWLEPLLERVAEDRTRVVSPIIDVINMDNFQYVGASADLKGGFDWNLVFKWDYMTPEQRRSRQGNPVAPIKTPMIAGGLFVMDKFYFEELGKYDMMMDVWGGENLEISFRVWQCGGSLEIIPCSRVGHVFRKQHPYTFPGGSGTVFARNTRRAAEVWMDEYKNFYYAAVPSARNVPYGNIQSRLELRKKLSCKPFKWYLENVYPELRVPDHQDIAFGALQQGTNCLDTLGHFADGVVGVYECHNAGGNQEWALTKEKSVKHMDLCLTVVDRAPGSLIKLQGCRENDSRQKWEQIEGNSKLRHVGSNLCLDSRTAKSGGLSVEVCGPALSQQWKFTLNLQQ

In the case of MUC5AC peptide (naked), the fold change of Kd, without UDP/Mn+2 against with UDP/Mn+2 is 4 fold.

These data come from article PMC4432651, “Dynamic interplay between catalytic and lectin domains of GalNAc-transferases modulates protein O-glycosylation” (Nature Communications, 2015).
